Assay results taken from patent US20160146786A1, “Method of monitoring cellular trafficking of peptides” (PHYLOGICA LIMITED, priority 2013, published 2016).

Legend:
[1] = CD spectrophotometry of FITC-labelled peptides; type: physicochemical
[2] = tested on: HEK-293 cells expressing GFP 11+GFP 1-10 fragments; test: Effect of cargo peptides on reconstitution of split GFP activity, transfected constructs (FIG. 17); type: cell-based, human; settings: peptide fused to Sumo-GFP 11, expressed from transiently transfected constructs; independent of uptake
Source text: FIG. 17 is a graphical representation showing the effect of cargo proteins on reconstitution of split GFP activity in isolated HEK-293 cells expressing GFP 11+GFP 1-10 fragments. HEK-293 cells transfected with GFP 1-10 vectors pcDNA4/TO vector [TO hGFP1-10(a)] or pcDNA4/HM vector [HM hGFP1-10(a)] are shown on the abscissa. Relative fluorescence for each GFP 11 construct added to the cells, normalized for activity in the presence of the MyD88_S11 and mGFP1-10 constructs, is indicated on the y-axis. The GFP 11 constructs lacking cargo peptides were: MyD88-GFP 11 fusion (MyD88_S11); Mal-GFP 11 fusion (Mal_S11), β-actin-GFP 11 fusion β-actin_S11), and Sumo-GFP 11 fusion (Sumo_S11). […]
The inventors have also considered the effect of cargo protein on reconstitution of split GFP activity in isolated HEK-293 cells expressing GFP 11+GFP 1-10 fragments. HEK-293 cells were transfected with GFP 1-10 vectors pcDNA4/TO vector [TO hGFP1-10(a)] or pcDNA4/HM vector [HM hGFP1-10(a)], and recombinant GFP 11-encoding constructs were added to the cells, and fluorescence activity was determined as a normalized value relative to fluorescence obtained for transfections employing MyD88-GFP11 and mGFP1-10 constructs. […]

[3] = biological target: hGFP1-10(a) (humanized variant of commercially-available mGFP1-10, 'A' variant, expressed from pcDNA4/TO or pcDNA4/HM); test: cell-based or functional assay
endosome = settings: Sugita et al. 2008; cited from earlier work

| Substance | CD spectral analysis, conformation ([1]; NaF Buffer pH 7.2) | CD spectral analysis, conformation ([1]; SDS Micelles pH 7.2) | CD spectral analysis, conformation ([1]; SDS Micelles pH 4.5) | other results |
| --- | --- | --- | --- | --- |
| C20_ABH_0304_1746: identified CPP, 38 aa; Transposase fragment [Bordetella pertussis] (PLKPKKPKTQEKKKKQPPKPKKPKTQEKKKKQPPKPKR) | Strong Beta-turn | Strong Beta-turn |  |  |
| PYC35: cargo protein, which is not a CPP (RSDYKDDDDKAYQSIRSGGIESSSKRER) |  |  |  | Decrease of Sumo_S11 fluorescence (reconstitution of split GFP activity) [2]: no-effect |
| T08_HBM_0104_0084: identified CPP, 33 aa (RKQKSLQTKLAENPPVPRKKRQSRPRWKQWLQK) | Partially helical | Helical | Helical |  |
| T09_HBM_0103_0167: identified CPP, 32 aa (PSSTPATNVARPRLNPIRGHKFALAVPNSRTR) | Coil with Beta-turn | Coil with Beta-turn | Random coil | CD spectral analysis, conformation ([1]; NaF Buffer pH 4.5): Random coil |
| TAT-Sumo-GFP 11 fusion |  |  |  | decrease of GFP fluorescence (split GFP reconstitution) relative to Sumo S11 in transiently transfected HEK-293 cells [3]: > 50% |
| transferrin: named in cited endosome escape study |  |  |  | Efficiency of endosome escape (endosome): low |
